Results from article doi:10.1101/2020.04.07.030676.

Target: soluble αβ-tubulin heterodimer (bovine) (UniProt Q6B856)
Test: ITC

B1: MEKK1 TOG domain, MEKK1(542–888) (domain or fragment)
chain: THYGTQQIPPAYKDLAEPWIQVFGMELVGCLFSRNWNVREMALRRLSHDVSGALLLANGESTGNSGGSSGSSPSGGATSGSSQTSISGDVVEACCSVLSMVCADPVYKVYVAALKTLRAMLVYTPCHSLAERIKLQRLLQPVVDTILVKCADANSRTSQLSISTLLELCKGQAGELAVGREILKAGSIGIGGVDYVLNCILGNQTESNNWQELLGRLCLIDRLLLEFPAEFYPHIVSTDVSQAEPVEIRYKKLLSLLTFALQSIDNSHSMVGKLSRRIYLSSARMVTTVPHVFSKLLEMLSVSSSTHFTRMRRRLMAIADEVEIAEAIQLGVEDTLDGQQDSFLQAS
Q: How did the Kd turn out when B1 was run?
A: Its Kd is 630 nM.

Q: And the stoichiometry N?
A: Its stoichiometry N is 1.
